Changes are numbered by the printed parent chain.
B1: Ab6 Fab (Fab, V domains shown)
VH: EVQLVESGGGLVQPGGSLRLSCTASGFTFSSFSMDWVRQAPGKGLEWVSYISPSADTIYYADSVKGRFTISRDNAKNTLYLQMNSLRAEDTAVYYCARGVLDYGDMLMPWGQGTLVTVSS
VL: DIQMTQSPSSLSASVGDRVTITCQASQDITNYLNWYQQKPGKAPKLLIYDASNLETGVPSRFSGSGSGTDFTFTISSLQPEDIATYYCQQADNHPPWTFGGGTKVEIK
notes: Fab of Ab6
B2: Ab31 (antibody, IgG4, V domains shown)
VH: B1 VH with T23A, S54D, D56S, G99A, M108D
VL: B1 VL
B3: Ab26 (antibody, IgG4, V domains shown)
VH: B1 VH with T23A, S54D, D56S, M108D
VL: B1 VL
B4: Ab33 (antibody, IgG4, V domains shown)
VH: B1 VH with T23A, D35N, R98H, M108D
VL: B1 VL
B5: Ab32 (antibody, IgG4, V domains shown)
VH: B1 VH with T23A, D35N, L101W, Y103M, M108D
VL: B1 VL
B6: Ab29 (antibody, IgG4, V domains shown)
VH: EVQLVESGGGLVQPGRSLRLSCAASGFTFSSFAMNWVRQAPGKGLEWVSYISPDASTIYYAGSVKGRFTISRDNAKNSLYLQMNSLRAEDTAVYYCVRAVLDYGDMLDPWGQGTLVTVSS
VL: B1 VL
B7: Ab11 (antibody, IgG4, V domains shown)
VH: EVQLLESGGGLVQPGGSLRLSCAASGFTFRNYAMSWVRQAPGKGLEWVSSISGSGGATYYADSVKGRFTISRDNSKNTLYLQMNSLRAEDTAVYYCARVSSGHWDFDYWGQGTLVTVSS
VL: DIQLTQSPSSLSASVGDRVTITCRASQSISSYLNWYQQKPGKAPKLLIYAASNLQSGVPSRFSGSGSGTDFTLTISSLQPEDFATYYCQQTYTVPLTFGGGTKVEIK
B8: Ab35 (antibody, IgG4, V domains shown)
VH: B7 VH with G102Y, H103L
VL: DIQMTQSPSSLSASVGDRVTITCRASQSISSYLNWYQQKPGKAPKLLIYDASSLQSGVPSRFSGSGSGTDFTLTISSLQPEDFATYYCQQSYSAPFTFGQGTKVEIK
B9: Ab12 (antibody, IgG4, V domains shown)
VH: B7 VH with E1Q, L5V, L11V, G16R, R30S, N31D, S35V, S50A, G56F, A57T
VL: B7 VL
B10: Ab19 (antibody, IgG4, V domains shown)
VH: QVQLVESGGGVVQPGRSLRLSCAASGFTFSSFAMTWVRQAPGKGLEWVSAISGSGAATYFADSVKGRFTISRDNSKNTLYLQMNSLRAEDTAVYYCARVSSGHWDFDEWGQGTLVTVSS
VL: B7 VL
B11: Ab20 (antibody, IgG4, V domains shown)
VH: B7 VH with R30S, N31A, S35T, S50A, A57V, F106Y
VL: B7 VL
B12: Ab4 (antibody, IgG4, V domains shown)
VH: B1 VH with T23A, F32Y, D35N, P53S, A55S, D56S, T78S, M108D
VL: B1 VL
notes: also called parental lead antibody of Ab6
B13: Ab2 Fab (Fab, V domains shown)
VH: B7 VH with R30A, N31D, S35T, S50A, G56A, Y60F
VL: B7 VL
notes: Fab of Ab2; C-terminally 6x-His tagged in the crystallography work

molecular target: T1, human proTGFβ1 C4S (human, UniProt P01137 30-390); experiment: HDX-MS
T1 construct: Small latent complex without presenting molecule; the cysteine that links to presenting molecules is changed to serine; also called small latent complex proTGFβ1 C4S; latent TGFβ1
T1 sequence (P01137 other isoform, or with tags, fused parts or gaps): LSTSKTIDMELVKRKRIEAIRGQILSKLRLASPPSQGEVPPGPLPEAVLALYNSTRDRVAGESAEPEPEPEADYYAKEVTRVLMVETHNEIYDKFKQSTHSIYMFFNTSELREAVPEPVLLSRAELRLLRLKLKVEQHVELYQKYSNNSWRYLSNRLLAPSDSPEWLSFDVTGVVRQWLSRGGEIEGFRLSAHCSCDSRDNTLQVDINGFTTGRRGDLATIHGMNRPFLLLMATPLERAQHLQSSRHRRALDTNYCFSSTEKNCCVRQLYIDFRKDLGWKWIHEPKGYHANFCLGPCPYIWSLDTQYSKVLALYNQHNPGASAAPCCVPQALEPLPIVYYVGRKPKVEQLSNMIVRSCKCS
Description: In the non-deuterated experiments, each sample was mixed with sample buffer (1:15, v/v) at room temperature, then mixed with 1:1 (v/v) quenching buffer (100 mM sodium phosphate, 4 M guanidine HCl, 0.5 M TCEP) at 0° C. Quenched samples were immediately injected into a nanoACQUITY UPLC™ system with HDX technology (Waters Corp., Milford, Mass., USA) for on-column pepsin digestion. The eluent was directed into a SYNAPT® G2 HDMS mass spectrometer (Waters Corp., Milford, Mass., USA) for analysis in MSE mode. For H/D exchange experiments, each sample was mixed with labeling buffer (20 mM HEPES, 150 mM NaCl in deuterium oxide, pD 7.5) (1:15, v/v) to start the labeling reactions at 25° C. Five aliquots of each sample were labeled at various time intervals: 10 s, 1 min, 10 min, 1 h, and 2 h. At the end of each labeling time point, the reaction was quenched by adding 1:1 (v/v) quenching buffer, and the quenched samples were injected into the Waters H/DX-MS system for analysis. Between each sample run, a clean blank was run by injecting pepsin wash buffer (1.5 M guanidine HCl, 4% acetonitrile, 0.8% formic acid) into the H/DX-MS system.
In HDX-MS, the regions of an antigen that are tightly bound by an antibody are protected from proton exchange, due to protein-protein interaction, while regions that are exposed to solvent can readily undergo proton exchange. […]

Binder | binding result
B1 | binds

molecular target: T2, human GARP-proTGFβ1 complex (human, UniProt Q14392 20-627; P01137 30-390); experiment: BLI (Octet)
T2 construct: also called hGARP-proTGFβ1; hGARP
T2 sequence (Q14392 20-627, chain 1 of 2): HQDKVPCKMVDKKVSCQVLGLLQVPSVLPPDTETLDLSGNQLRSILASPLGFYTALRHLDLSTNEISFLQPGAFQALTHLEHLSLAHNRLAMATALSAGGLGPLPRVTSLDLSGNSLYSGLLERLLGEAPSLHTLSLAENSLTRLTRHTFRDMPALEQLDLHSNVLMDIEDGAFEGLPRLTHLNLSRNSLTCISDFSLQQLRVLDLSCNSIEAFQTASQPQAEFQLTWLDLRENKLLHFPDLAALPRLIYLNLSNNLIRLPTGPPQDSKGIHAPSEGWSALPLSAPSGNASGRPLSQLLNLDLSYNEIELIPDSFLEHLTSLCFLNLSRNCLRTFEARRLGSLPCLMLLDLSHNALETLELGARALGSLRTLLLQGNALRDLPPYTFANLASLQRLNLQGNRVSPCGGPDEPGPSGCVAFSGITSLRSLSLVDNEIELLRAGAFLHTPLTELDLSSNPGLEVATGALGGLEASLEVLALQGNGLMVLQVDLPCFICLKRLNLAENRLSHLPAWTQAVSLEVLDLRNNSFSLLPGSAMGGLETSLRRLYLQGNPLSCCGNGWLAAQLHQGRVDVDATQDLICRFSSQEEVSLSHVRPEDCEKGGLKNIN
T2 sequence (P01137 30-390, chain 2 of 2): as the sequence (P01137 other isoform, or with tags, fused parts or gaps) above, with S4C counted along it

Binder | Kd
B2 | 0.581 nM
B3 | 0.625 nM
B4 | 0.265 nM
B5 | 0.496 nM
B6 | 0.307 nM
B7 | 0.842 nM
B8 | 7.37 nM
B9 | 7.01 nM
B10 | 11.2 nM
B11 | 0.884 nM

molecular target: T3, human LTBP1-proTGFβ1 complex (human, UniProt Q14766 873-1507); experiment: BLI (Octet)
T3 construct: range 873-1507; biotinylated in Octet and MSD-SET; also called hLTBP1-proTGFβ1; hLTBP1
T3 sequence (Q14766 873-1507 limits assumed, chain 1 of 2): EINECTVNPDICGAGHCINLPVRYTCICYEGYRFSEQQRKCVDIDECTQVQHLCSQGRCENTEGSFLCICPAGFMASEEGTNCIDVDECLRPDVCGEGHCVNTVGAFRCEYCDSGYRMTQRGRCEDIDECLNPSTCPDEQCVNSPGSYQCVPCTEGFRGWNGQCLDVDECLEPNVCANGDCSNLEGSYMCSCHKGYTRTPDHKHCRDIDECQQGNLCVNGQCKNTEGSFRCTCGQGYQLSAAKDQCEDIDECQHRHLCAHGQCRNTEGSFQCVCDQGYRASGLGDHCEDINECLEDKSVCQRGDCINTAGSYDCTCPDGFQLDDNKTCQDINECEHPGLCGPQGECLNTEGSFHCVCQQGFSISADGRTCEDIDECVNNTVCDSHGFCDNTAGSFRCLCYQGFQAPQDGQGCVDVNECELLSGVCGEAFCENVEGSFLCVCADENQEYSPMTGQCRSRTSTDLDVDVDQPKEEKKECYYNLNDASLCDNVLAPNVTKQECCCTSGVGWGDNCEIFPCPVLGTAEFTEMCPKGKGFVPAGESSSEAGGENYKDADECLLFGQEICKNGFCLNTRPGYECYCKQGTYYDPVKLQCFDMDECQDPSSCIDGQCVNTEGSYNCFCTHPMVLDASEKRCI
T3 sequence (chain, as listed by the source limits assumed, chain 2 of 2): as the sequence (P01137 other isoform, or with tags, fused parts or gaps) above, with S4C counted along it

Binder | Kd
B2 | 0.236 nM
B3 | 0.221 nM
B4 | 0.179 nM
B5 | 0.269 nM
B6 | 0.189 nM
B7 | 0.167 nM
B8 | 0.159 nM
B9 | 0.157 nM
B10 | 0.189 nM
B11 | 0.192 nM

molecular target: T4, human LTBP3-proTGFβ1 complex (human, UniProt Q9NS15 866-1039); experiment: BLI (Octet)
T4 construct: range 866-1039; also called hLTBP3-proTGFβ1; hLTBP3
T4 sequence (Q9NS15 866-1039 limits assumed, chain 1 of 2): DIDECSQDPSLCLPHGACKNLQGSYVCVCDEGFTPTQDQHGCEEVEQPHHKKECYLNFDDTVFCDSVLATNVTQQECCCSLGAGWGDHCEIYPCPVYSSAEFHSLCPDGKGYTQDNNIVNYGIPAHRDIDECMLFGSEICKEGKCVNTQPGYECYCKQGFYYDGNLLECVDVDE
T4 sequence (chain, as listed by the source limits assumed, chain 2 of 2): as the sequence (P01137 other isoform, or with tags, fused parts or gaps) above, with S4C counted along it

Binder | Kd
B2 | 0.181 nM
B3 | 0.173 nM
B4 | 0.111 nM
B5 | 0.215 nM
B6 | 0.121 nM
B7 | 0.154 nM
B8 | 0.169 nM
B9 | 0.183 nM
B10 | 0.156 nM
B11 | 0.131 nM

molecular target: T5, human LRRC33-proTGFβ1 complex (human, UniProt Q86YC3 19-650; P01137 30-390); experiment: BLI (Octet)
T5 construct: also called hLRRC33-proTGFβ1; hLRRC33
T5 sequence (Q86YC3 other isoform, or with tags, fused parts or gaps limits assumed, chain 1 of 2): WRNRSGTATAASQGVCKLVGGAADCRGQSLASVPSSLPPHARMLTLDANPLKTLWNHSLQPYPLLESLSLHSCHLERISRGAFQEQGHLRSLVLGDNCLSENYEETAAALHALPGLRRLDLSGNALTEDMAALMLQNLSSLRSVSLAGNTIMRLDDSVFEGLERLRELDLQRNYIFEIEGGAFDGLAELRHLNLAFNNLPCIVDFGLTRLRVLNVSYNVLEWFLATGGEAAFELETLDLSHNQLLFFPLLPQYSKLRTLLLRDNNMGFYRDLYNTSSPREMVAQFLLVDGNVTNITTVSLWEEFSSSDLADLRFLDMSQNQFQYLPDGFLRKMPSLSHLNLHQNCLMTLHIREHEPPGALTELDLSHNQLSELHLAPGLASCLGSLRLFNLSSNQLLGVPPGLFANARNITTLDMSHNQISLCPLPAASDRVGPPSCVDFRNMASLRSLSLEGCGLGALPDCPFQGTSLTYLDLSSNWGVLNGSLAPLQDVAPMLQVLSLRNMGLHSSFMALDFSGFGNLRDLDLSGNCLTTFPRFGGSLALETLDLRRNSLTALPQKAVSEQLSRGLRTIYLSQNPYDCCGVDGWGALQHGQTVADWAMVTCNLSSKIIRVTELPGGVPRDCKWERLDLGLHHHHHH
T5 sequence (P01137 30-390 limits assumed, chain 2 of 2): as the sequence (P01137 other isoform, or with tags, fused parts or gaps) above, with S4C counted along it

Binder | Kd
B2 | 0.41 nM
B3 | 0.36 nM
B4 | 0.339 nM
B5 | 0.698 nM
B6 | 0.302 nM
B7 | 0.555 nM
B8 | 0.545 nM
B9 | 0.775 nM
B10 | 0.692 nM
B11 | 0.545 nM

molecular target: T2, human GARP-proTGFβ1 complex; experiment: MSD-SET, solution equilibrium titration
Description: (§1) MSD-SET assays were performed to measure affinities of the antibodies at equilibrium. Briefly, each test antibody was diluted 3-5 fold and samples were mixed with biotinylated antigen in a 48-well dish. The SET samples were equilibrated for 20-24 hours at room temperature. Meanwhile, a capture plate was coated with IgG (20 nM) and incubated overnight at 4° C. or 30 minutes at room temperature, followed by a blocking step with 5% BSA. After the capture plate was washed three times, SET samples were added and incubated for 150 seconds. The plate was washed once to remove unbound complexes. 250 ng/ml SA-Sulfotag was added then washed 3 times. 2× Read Buffer was added, and signals from the labeled bound complexes were read with the use of QuickPlex™ SQ 120 instrument.

Binder | Kd
B12 | 2.5 nM
B2 | 0.019 nM
B3 | 0.014 nM
B4 | 0.0078 nM
B5 | 0.015 nM
B6 | 0.0055 nM
B7 | 3 nM
B8 | 1.1 nM
B9 | 1.7 nM
B10 | 3.8 nM
B11 | 1.1 nM

molecular target: T3, human LTBP1-proTGFβ1 complex; experiment: MSD-SET, solution equilibrium titration
Description: as §1

Binder | Kd
B12 | 4.6 nM
B2 | 0.019 nM
B3 | 0.028 nM
B4 | 0.011 nM
B5 | 0.037 nM
B6 | 0.012 nM
B7 | 1.2 nM
B8 | 0.27 nM
B9 | 0.78 nM
B10 | 2.1 nM
B11 | 0.22 nM

molecular target: T4, human LTBP3-proTGFβ1 complex; experiment: MSD-SET, solution equilibrium titration
Description: as §1

Binder | Kd
B12 | 5.5 nM
B2 | 0.014 nM
B3 | 0.023 nM
B4 | 0.007 nM
B5 | 0.026 nM
B6 | 0.011 nM
B7 | 1.2 nM
B8 | 0.26 nM
B9 | 0.66 nM
B10 | 2.7 nM
B11 | 0.18 nM

molecular target: T5, human LRRC33-proTGFβ1 complex; experiment: MSD-SET, solution equilibrium titration
Description: as §1

Binder | Kd
B12 | 2.1 nM
B2 | 0.096 nM
B3 | 0.13 nM
B4 | 0.046 nM
B5 | 0.087 nM
B6 | 0.043 nM
B7 | 6.3 nM
B8 | 1.1 nM
B9 | 3.2 nM
B10 | 5.7 nM
B11 | 1.6 nM

molecular target: hLTBP3-proTGFβ1 complex made by transfected cells (cell-based potency assay) (human, UniProt Q9NS15 44-1303; P01137 30-390); experiment: cell-based or functional assay

Binder | IC50, reporter cell assay of TGFβ1 activation
B12 | 5.65 nM
B3 | 0.716 nM
B4 | 1.11 nM
B6 | 0.803 nM
B7 | 1.56 nM
B8 | 2.71 nM
B9 | 1.55 nM
B10 | 1.6 nM
B11 | 1.18 nM

molecular target: hLRRC33-proTGFβ1 complex on cells (human, UniProt Q86YC3 19-692; P01137 30-390); experiment: cell-based or functional assay
Sequence (Q86YC3 19-692 limits assumed, chain 1 of 2): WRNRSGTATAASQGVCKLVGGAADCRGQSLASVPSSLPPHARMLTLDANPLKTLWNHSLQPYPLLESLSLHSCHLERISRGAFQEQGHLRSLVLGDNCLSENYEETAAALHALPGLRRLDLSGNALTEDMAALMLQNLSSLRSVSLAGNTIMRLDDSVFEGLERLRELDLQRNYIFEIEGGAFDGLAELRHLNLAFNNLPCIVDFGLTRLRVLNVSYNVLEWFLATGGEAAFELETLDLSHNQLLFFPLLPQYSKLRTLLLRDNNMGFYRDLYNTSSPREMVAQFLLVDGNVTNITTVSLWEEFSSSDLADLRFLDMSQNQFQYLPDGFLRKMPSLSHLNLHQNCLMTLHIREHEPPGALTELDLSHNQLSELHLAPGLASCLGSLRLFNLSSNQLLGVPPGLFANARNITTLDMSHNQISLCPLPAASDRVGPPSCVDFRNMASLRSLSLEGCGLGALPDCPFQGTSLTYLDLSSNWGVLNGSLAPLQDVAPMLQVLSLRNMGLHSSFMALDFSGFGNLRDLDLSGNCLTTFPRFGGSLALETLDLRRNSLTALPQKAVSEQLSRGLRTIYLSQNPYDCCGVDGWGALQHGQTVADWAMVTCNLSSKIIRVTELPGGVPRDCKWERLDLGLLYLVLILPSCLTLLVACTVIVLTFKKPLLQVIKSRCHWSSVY
Sequence (P01137 30-390 limits assumed, chain 2 of 2): as the sequence (P01137 other isoform, or with tags, fused parts or gaps) above, with S4C counted along it

Binder | IC50, reporter cell assay of TGFβ1 activation
B12 | 3.5 nM
B3 | 0.341 nM
B4 | 0.738 nM
B6 | 0.458 nM
B7 | 1.27 nM
B8 | 5.37 nM
B9 | 2.43 nM
B10 | 0.401 nM
B11 | 1.35 nM

molecular target: hGARP-proTGFβ1 complex on cells (human, UniProt Q14392 20-662; P01137 30-390); experiment: cell-based or functional assay
Sequence (Q14392 20-662 limits assumed, chain 1 of 2): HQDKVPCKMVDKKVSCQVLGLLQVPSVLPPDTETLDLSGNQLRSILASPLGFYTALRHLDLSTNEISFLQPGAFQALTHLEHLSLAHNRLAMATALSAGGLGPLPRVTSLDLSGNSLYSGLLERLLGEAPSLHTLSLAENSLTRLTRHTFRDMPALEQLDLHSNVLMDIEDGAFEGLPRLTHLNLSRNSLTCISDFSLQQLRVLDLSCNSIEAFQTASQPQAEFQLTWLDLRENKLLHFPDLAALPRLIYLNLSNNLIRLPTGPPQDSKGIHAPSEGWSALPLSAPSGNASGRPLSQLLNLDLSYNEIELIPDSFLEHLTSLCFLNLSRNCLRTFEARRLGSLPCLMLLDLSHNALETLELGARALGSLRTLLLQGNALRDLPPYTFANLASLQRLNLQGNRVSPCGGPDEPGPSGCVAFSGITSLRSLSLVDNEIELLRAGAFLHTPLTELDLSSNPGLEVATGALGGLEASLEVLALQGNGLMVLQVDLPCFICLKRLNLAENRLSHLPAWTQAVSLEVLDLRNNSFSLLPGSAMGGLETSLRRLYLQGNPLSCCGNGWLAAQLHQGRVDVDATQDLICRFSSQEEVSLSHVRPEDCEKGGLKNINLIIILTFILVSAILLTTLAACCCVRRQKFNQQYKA
Sequence (P01137 30-390 limits assumed, chain 2 of 2): as the sequence (P01137 other isoform, or with tags, fused parts or gaps) above, with S4C counted along it

Binder | IC50, reporter cell assay of TGFβ1 activation
B12 | 0.822 nM
B3 | 0.262 nM
B4 | 0.198 nM
B6 | 0.264 nM
B7 | 0.79 nM
B8 | 3.71 nM
B9 | 1.08 nM
B10 | 1.34 nM
B11 | 0.387 nM

molecular target: hLTBP1-proTGFβ1 complex made by transfected cells (cell-based potency assay) (human, UniProt Q14766 347-1721; P01137 30-390); experiment: cell-based or functional assay

Binder | IC50, reporter cell assay of TGFβ1 activation
B12 | 5.22 nM
B3 | 0.713 nM
B4 | 1.56 nM
B6 | 0.471 nM
B7 | 2.95 nM
B8 | 6.25 nM
B9 | 3.79 nM
B10 | 1.66 nM
B11 | 1.85 nM

molecular target: T6, murine GARP-proTGFβ1 complex (mouse, UniProt G3XA59 18-628; P04202 30-390); experiment: BLI screen of human and murine LLCs
T6 construct: Soluble murine complex; also called mGARP-proTGFβ1

Binder | binding result
B12 | binds

molecular target: T7, human proTGFβ1 C4S/R249A (human, UniProt P01137 30-390); experiment: X-ray crystal structure of the ternary complex
T7 construct: Expressed with kifunensine and treated with endoglycosidase H; also called uncleavable human proTGFβ1 variant
T7 sequence (P01137 other isoform, or with tags, fused parts or gaps R249A R249A): as the sequence (P01137 other isoform, or with tags, fused parts or gaps) above, with R249A counted along it
Description: In this work, an uncleavable human proTGFβ1 C4S/R249A variant was used that spans residues 30-390 based on the full-length sequence of human proTGFβ1 (Uniprot ID P01137). The numbering system that will be used for the rest of this document will designate position 1 as the first amino acid residue after the removal of the signal sequence for proTGFβ isoforms. The C4S mutation renders proTGFβ1 not capable of covalent crosslinking to any known presenting molecules, e.g. LTBPs and GARP, while the R249A renders proTGFβ1 resistant to proprotein convertase/furin protease cleavage, thus maintaining proTGFβ1 in its uncleaved, proprotein form. […] The AbX Fab in this context was used as an auxiliary protein, which acts as a crystallization chaperone to increase the probability of obtaining protein crystals.
Crystallization experiments were performed at room temperature in a sitting drop format. […] X-ray diffraction data were collected at the SER-CAT beamline 22-ID at the Advanced Photon Source (APS) at the Argonne National Laboratory (ANL) using a Dectris Eiger 16M detector. The diffraction images were processed with X-ray Detector Software (XDS) in space group C2221 with an asymmetric unit containing one half of a 2:2:2 complex. The structure of the ternary complex was solved by molecular replacement using Phaser.

Binder | binding result
B13 | binds
